The data set can be described thus: label from the status in PepcDB records.

Take “MTIFRFADGNSMTTKTNLLPHIPSSDAIISRWRWLAIIVSLVMALLASAFILLLSNAVDREVAQLNTSSELREQADLVLISLIDMAVADRSYAKNHKAEDKARFEHAARNLDDILEYIELIVYAHPQWYEWFTSFKKEVEARKAFMNDHMRALDALPDQSSQPSSSSEIPKIQVARLAQLMTSFINGDDVVRQKQREGIALMRAALTLAAIVSVVSTFMSAYFVINRFHRDVRSLKMYQLLLHSENIALEARVKERTQELERARNHAEKERQRVEMLLQDVSHRIGNSLGTVSSLLGLQLNRSDNEEVRSVLGAARDRIQTISTAHRRLRLSDDMETTLLAEFLSSVVHDVELAMPLELRENITIHTNFKECRLSSRDATTLGIILGELLTNSLKHAFPDKRSGDIYISFGPQKNGQLMLIVEDNGVGMKNQTQEKKTGLGRVVVEQLCMQFGEKPLFETSALGGTKIVIPLPKLTPNASKEAYA”: the protein production entry is “failed”.

Turning to “MTIKTLDISPVGRVEGDLDVRVEIEDGQVVNAWTHAELFRGFEIILRGKDPQAGLIVTPRICGICGASHLTSASWALDTAWNTTVPRNAILARNLGQIVETIQSIPRYFYGLFAIDLTNKKYRSSRFYDEAVRRFAAFTGKSYELGVTISSKPVEIYALFGGQWPHSSYMVPGGVMCAPTLTDITRAWAILEYFRTNWLEPVWLGCSLERYEEIQTYDDFMDWLEADIKHRESDLGFYWRMGLDIGLDRYGAGVGKYVSWGYLPHEDKYQKPTIEGRNAAMIMKSGVYDSFSDTHTLMDHTFARENTTHSWYDEGNADVHPFDRTTKPTQKNTKDFKNAYSWSTAVLHQDFGRLEVGPLARQLVAGGQHGESWQHYDGFILDAFQKMGGASIHLRQLARVHEIVKLYRQAERCLREFVLNDPWYIKPKEKDGRGWGATEASRGSLCHWIDIEGGKIKNYQVIAATTWNVGPRDSEGVRGPIEEALIGTPIEDSRDPVEVGHVARSFDSCLVCTVHAHDAKTGEELARFRTA”, the protein production entry is on record as “failed”.

With “MTILSAALLLFLILDPLGNIPVFLSVLKPLPPKRQRFVLARELLIALCVLMAFLWGGKYALELMHLRQESVAIAGGIVLFVIGIRMIFPRPEGLMGEIPDGEPFIVPLAIPLVAGPSGMAAVMLMGSNEPTRLWDWSLALMIAWIGASSILAAAPLLYKLLGHRALTAIERLMGMLLVAISVQMFLDGLGTYFKLPVSI”, the protein production result is recorded as “failed”.

“MTILVEHFVPDSRVDEKKVIEERDNELVLDGGFVVPKSKETDAFDAPDMNFLGHSFRDYENGESERQQGVEEFYRMQHIHQTYDFVKKMRKEYGKLNKMEMSIWECCELLNNVVDESDPDLDEPQIQHLLQTAEAIRRDYPDEDWLHLTALIHDLGKVLLLPEFGGLPQWAVVGDTFPVGCTFDSANIHHKYFKGNHDINNPKYNTKNGVYTEGCGLDNVLMSWGHDDYMYLVAKKNGTTLPHAGLFIIRYHSFYPLHKAGAYTHLMNDEDRDDLKWLHVFNKYDLYSKSKVLVDVEQVKPYYISLINKYFPAKLKW”: the protein production entry is “failed”.

“MTIMTARFASILLGGCLAASLFSGPVFAVGNDNSTMPTCKKGEIYDQKTKKCVKQQSANVSDENRTDYAYSLAKAGRYEEALAMLDTVKDQNSAEVLNYRGYATRKLGRTDEGISYYLQSVKMDPQYAKVREYLGEAYVIKGRLDLAKEQLTTIKAICGTACEEYQDLNAAILNPSKI”: the protein production result is “failed”.

Regarding “MTIPELPKDLIEEILCYVPATYLKRLRSTCKGWNRLFKDDRRFAKKHYDKAAKQFLPLMSTNEELCAMSVNLHGTIPSLEVKDKPWLFVSDSKHCDIEISRIFHSGGLLLCFSRDGEISIIVWNPLTSETRLIRTRNRRDKGRNFVLGYYQEDKKTYYKILSFYLDSKDFEIFEFNSDSWRFIDDICPGLSLLYSDQCVSLKGNTYMFAIDDLSVSLLKYDFSTETSVPVPLPYKSRSFEAISLSVVREEKLSVLLQRDKSSKTEIWVTNVIDETTTKVMVVSWSKVLSLDLSPDLKIRYGESFLLDEEKKVIMIFNNRMEEENKSEDKLYIIGDDDNKATQVYTIHGYGPAVFNYFPSLVQIEQSSRQEEKS”, the protein production entry was “failed”.

On to “MTIPNQIEVRGGRVHNLKNIDVDIPLNKFVAISGLSGSGKSSLAMGILYEEGSRRYLDALSTYMRRRIKQGSQVDVTSVKHIPSALALRQRPSVPNERATVGTMSETFNILRLIFSRLGSPVCPNGHRLKPSLKIAESMSLSGEKMGQLTCPVCGENFYAPSAEQFAFNSEGACIECGGTGKVRQLDEDKLIADENLSIKEGAVASWSLPGRNFMPNVAEYAGVRIDIPYKDLTAKEKDFVLNGPEKKYKMDFLSGTGRVFHDFNVLYENAHQAVYRSAQTSKSERAQKRIAEFFTYSICPVCHGSRLKPELLKQWVGNSNINQVSQKQLGELPTWADQIQAELPANMHKMAHALFAEFLDNLQPLLDLGLDYLTMARNGNTLSTGELQRIQLARTLRTETTGVLYVLDEPSIGLHPANVAGLIKVLRKLVNQGNSLVVVDHNVDIIAAADEVIEIGPGSGEKGGQILDHGPISTIKNDQQSLIRPYLDGSAQLLARKIANQINNDGISFEVKNYFNLKDIKANIPLNQLTAVTGFSGAGKTSLILDSLVPAIKAESKNEKLPKQIINFSAPVSNVVGVDASPIGKSTRSTVATYTSIMNNLRRLFASQPLAKEKHFTPTYFSYNNKQGACPTCGGTGIVTLDIQFLPDMQQVCPTCHGDRYNQKVQQVKWQGMSIVDILNLDIEGALPLFKRVPKIERELKLLKEVGLDYLHLGESTPTLSGGEAQRLKLVTHLSHKQSDTLFVFDEPTIGLHPLDVKTLVKVMQKLLDQGATLITITHDLNLIANCDYIIDLGPQGGNNGGQIVASGRVMDLIKDPHSLTTQYLAVYCENLICLKIIIDLLA”, for which the protein production result is on record as “failed”.

As to “MTIPYKEQRLPIEKVFRDPVHNYIHVQHQVILDLINSAEVQRLRRIKQLGTSSFTFHGAEHSRFSHSLGVYEITRRICEIFQRNYSVERLGENGWNDDERLITLCAALLHDVGHGPYSHTFEHIFDTNHEAITVQIITSPETEVYQILNRVSADFPEKVASVITKQYPNPQVVQMISSQIDADRMDYLLRDAYFTGTEYGTFDLTRILRVIRPYKGGIAFAMNGMHAVEDYIVSRYQMYVQVYFHPVSRGMEVILDHLLHRAKELFENPEFDYDLQASLLVPFFKGDFTLQEYLKLDDGVLSTYFTQWMDVPDSILGDLAKRFLMRKPLKSATFTNEKESAATIAYLRELIEKVGFNPKYYTAINSSYDLPYDFYRPNKDRHRTQIELMQKDGSLVELATVSPLVAALAGQSQGDERFYFPKEMLDQGNKKHYDLFDETYREFSSYIHNGALVLKK”, the protein production entry is recorded as “not failed”.

Consider “MTIQPDFNDEPGAFAMTHTHTALDKTLKERIFHALAFEGLAVLLTAPVLSLVMNKPLAHMGALTLMFSTVAMLWNMLFNSLFDRAQRRMGFQRTLQVRVLHAMLFELGLIVVLVPLAAWWLSIGLVEAFLLDMGLILFFLPYTMAFNWSYDVLRARLVESRQAKAAGCDAG”, for which the protein production entry was “failed”.

“MTIQSEQALEQGLIKTLVSMNYQKIEIADENALIVNFRNQLNIHNNIELTDDEFNRIMIHLDSGSIFVKAEKLRNRFPLTRDDESVKWIEFLNTQEWCKNEFQVSNQITDEGRRKCRYDVTILVNGLPLVQVELKKRGVELKQAYSQVQRYHKTAFKGLFNYIQIFVISNGVNTRYFANNPNQGYKFTFPWADFKNNHIDRLDLFAAMFFEQCTLGKMLAKYVVLHQSDKCLMILRPYQFYAVEALLDKVANSVKNGYIWHTTGSGKTLTSFKAAQLIAEMSDIDKVLFVVDRHDLDTQTKKEYDAFAPGAVDSTDNTKELVKALQGKKKLMITTIQKLNNAVQKDRYSKGLQGVKDKNIVMIFDECHRSQFGEMHSNITGFFSKIRYFGFTGTPIFADNANNGCTTKDIFGERLHEYLIKDAIADENVLGFLVEYHGKWKRKSENDKQVKSIDTAEVLLKDERIASITDFILSNYNSSTYERDFNAMLAVGGVKMLIKYYDMFKSRNHDLKIATIFTYTQNEESEDEFTGLGQGFVSVQNTRDILESYIKDYNETFGTEFDTDHFGLYYDDINKRMKNRQIDLLIVSDMFLTGFDAKKLNTLYVDKNLNYHGLLQAFSRTNRVLNEKKKFGKITCFRDLKQQTDDAIKLYSNNKSSEVVLMKPYEKLVERFNEMAAEFLSYFPTVKSVGNLESELDKRRFVILFRAMLRLRNEVKGYNEFDAEDLTIEEQRFADYQSKYLDMSNEFAITSEKEDAESILQDIDFELELVHRDIINVMYILALLQDLKPESSSYPKDRKAVLDTMDSNPELRSKIALIDNFIKLHIDGRQSNDLPADMESDLDKYIATQKAIAIEQVATEEGIDSTLLHEYISEYEYLGKPKNEIIKRAIDPLKLSFMDAQSKKKSLIDKMKDIIKLFSWN”: the protein production entry is “failed”.

Values taken from a protein production outcome set (Wang et al. 2014).
